Molecular target: the molecule itself
Assay: SEC

B1: C-terminal domain of mtFDH (ALDH1L2), residues 413-923 (domain or fragment, human, UniProt Q3SY69 413-923, looked up)
chain: VRKLRGEDQEVELVVDYISKEVNEIMVKMPYQCFINGQFTDADDGKTYDTINPTDGSTICKVSYASLADVDKAVAAAKDAFENGEWGRMNARERGRLMYRLADLLEENQEELATIEALDSGAVYTLALKTHIGMSVQTFRYFAGWCDKIQGSTIPINQARPNRNLTFTKKEPLGVCAIIIPWNYPLMMLAWKSAACLAAGNTLVLKPAQVTPLTALKFAELSVKAGFPKGVINIIPGSGGIAGQRLSEHPDIRKLGFTGSTPIGKQIMKSCAVSNLKKVSLELGGKSPLIIFNDCELDKAVRMGMGAVFFNKGENCIAAGRLFVEESIHDEFVTRVVEEIKKMKIGDPLDRSTDHGPQNHKAHLEKLLQYCETGVKEGATLVYGGRQVQRPGFFMEPTVFTDVEDYMYLAKEESFGPIMVISKFQNGDIDGVLQRANSTEYGLASGVFTRDINKAMYVSEKLEAGTVFINTYNKTDVAAPFGGVKQSGFGKDLGEEALNEYLKTKTVTLEY
stoichiometry N: 4
